Values quoted from earlier work, collected in PMC5497954.

Target: IL2Rβγ (Homo sapiens) (UniProt P14784)
Sequence of UniProt P14784 (P14784 27-240, chain 1 of 2): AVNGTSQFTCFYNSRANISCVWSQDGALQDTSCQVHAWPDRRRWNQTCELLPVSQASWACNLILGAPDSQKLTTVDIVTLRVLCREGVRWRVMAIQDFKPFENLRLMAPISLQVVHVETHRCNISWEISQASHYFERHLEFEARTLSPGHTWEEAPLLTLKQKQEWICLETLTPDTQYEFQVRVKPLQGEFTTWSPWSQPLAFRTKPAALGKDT
Sequence of UniProt P14784 (P31785 23-262, chain 2 of 2, further chain): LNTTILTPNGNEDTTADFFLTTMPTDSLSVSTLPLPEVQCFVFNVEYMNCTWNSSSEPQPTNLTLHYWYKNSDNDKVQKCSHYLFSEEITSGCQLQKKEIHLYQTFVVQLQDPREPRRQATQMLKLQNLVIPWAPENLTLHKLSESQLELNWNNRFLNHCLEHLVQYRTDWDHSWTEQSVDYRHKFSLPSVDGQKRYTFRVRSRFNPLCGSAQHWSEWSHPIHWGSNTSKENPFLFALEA

IL2 (from UniProt P60568)
Kd: 1 nM
